Where no end group is shown, it is not given here.
Biological target: the molecule itself
Assay: Blue native PAGE of the peptide dissolved in 1xPBS; self-association into a hexamer
Method: The peptide (SEQ ID NO: 15) was synthesized by SPPS and lyophilized for storage. The peptide was dissolved in 1×PBS and then loaded onto a blue native PAGE gel and size fractionated by electrophoresis through a 4-16% acrylamide gradient gel for 90 min at 150 V (constant). The gel was fixed in methanol:acetic acid:water and then rinsed in the same solution to destain. Lane 1 is BSA as a reference protein, and Lane 2 is the self-assembled hexamer. MW standards (which are not shown) are on the right. BSA is 66 kDa and the hexamer has an expected size of 20.7 kDa.
Experiments were performed to confirm that a hexamer forms following hydration of the monomer, elucidate the solubility of epitope coupled hexamers, determine the maximum density of epitope coupling, and confirm that a hexameric structure is maintained following coupling of the epitope. A representative peptide, SEQ ID NO: 15, was synthesized using the protocols previously described. A methionine and aspartic acid residue were placed on the N-terminus, and the methionine residue was protected by acetylation to form Acetyl-MD-(SEQ ID NO: 15). Following SPPS, the peptide was lyophilized for storage. To show self-assembly, the peptide was dissolved in 1×PBS buffer, incubated at room temperature for 5 min, and loaded onto a Blue NativePAGE Novex Bis-Tris Gel using the system purchased from Life Technologies. […]

B1: Acetyl-MD-(SEQ ID NO: 15) (peptide)
peptide: Ac-MDLRSIGKDLRSIGRDLRSIGKDLRSIGRD
notes: After it is dissolved in 1xPBS, six copies self-assemble into a hexamer (expected 20.7 kDa); also called self-assembled peptide
binding result: binds
